Reference: patent US20050032145A1, “Methods for measuring activity of glutamine:fructose 6-phosphate amidotransferase and activity of inhibitors thereof” (priority 2002, published 2005)

Key:
[1] = substrate: NC(=O)CC[C@H](N)C(=O)O; assay: Substrate Km determination, Lineweaver-Burk plot (GFAT-alpha); format: biochemical, human; details: other: extracts from transfected SF9 insect cells, other substrate at saturating levels
Method: (§1) FIG. 3 illustrates the effect of varying concentrations of the substrates glutamine and fructose 6-phosphate on the enzyme activity of GFAT-alpha and GFAT-beta. FIG. 3A is a graph illustrating incubation with 10 μl glutamine 200 mM+10 μl fructose 6-phosphate 3.125, 6.25, 12.5, 25, 50, 100, and 200 mM. FIG. 3B is a graph illustrating incubation with 10 μl fructose 6-phosphate 200 mM+10 μl glutamine 3.125, 6.25, 12.5, 25, 50, 100, and 200 mM. 10 μl of GFAT-alpha and 5 μl of GFAT-beta extracts from transfected SF9 insect cells are incubated with 1) 10 μl glutamine 200 mM+10 μl fructose 6-phosphate 3.125, 6.25, 12.5, 25, 50, 100, and 200 mM, and 2) 10 μl fructose 6-phosphate 200 mM+10 μl glutamine 3.125, 6.25, 12.5, 25, 50, 100, and 200 mM in an incubation media containing 10 μl PBS 10×, 10 μl EDTA 50 mM, 10 μl, DTT 10 mM and water to 100 μl. The plate is sealed with a Costar plate sealer and incubated for 60 minutes at 37° C. by floating on a water bath. Additional incubation mixture is kept on ice to add to standard and control samples. […] After a 20-minute incubation at 37° C., the OD is determined for each well at 585 nm. […]
(§2) FIG. 3C is a table illustrating the Km values of the substrates for the GFAT-alpha and GFAT-beta enzymes calculated from the data generated in FIGS. 3A and 3B. […]

[2] = substrate: O=C(CO)[C@@H](O)[C@H](O)[C@H](O)COP(=O)(O)O; assay: as above; format: biochemical, human; details: other: extracts from transfected SF9 insect cells, other substrate at saturating levels
Method: as §1, §2

B1: GFAT-alpha (Homo sapiens; I57T) (protein)
chain: MCGIFAYLNYHVPRTRREILETLIKGLQRLEYRGYDSAGVGFDGGNDKDWEANACKTQLIKKKGKVKALDEEVHKQQDMDLDIEFDVHLGIAHTRWATHGEPSPVNSHPQRSDKNNEFIVIHNGIITNYKDLKKFLESKGYDFESETDTETIAKLVKYMYDNRESQDTSFTTLVERVIQQLEGAFALVFKSVHFPGQAVGTRRGSPLLIGVRSEHKLSTDHIPILYRTGKDKKGSCNLSRVDSTTCLFPVEEKAVEYYFASDASAVIEHTNRVIFLEDDDVAAVVDGRLSIHRIKRTAGDHPGRAVQTLQMELQQIMKGNFSSFMQKEIFEQPESVVNTMRGRVNFDDYTVNLGGLKDHIKEIQRCRRLILIACGTSYHAGVATRQVLEELTELPVMVELASDFLDRNTPVFRDDVCFFLSQSGETADTLMGLRYCKERGALTVGITNTVGSSISRETDCGVHINAGPEIGVASTKAYTSQFVSLVMFALMMCDDRISMQERRKEIMLGLKRLPDLIKEVLSMDDEIQKLATELYHQKSVLIMGRGYHYATCLEGALKIKEITYMHSEGILAGELKHGPLALVDKLMPVIMIIMRDHTYAKCQNALQQVVARQGRPVVICDKEDTETIKNTKRTIKVPHSVDCLQGILSVIPLQLLAFHLAVLRGYDVDFPRNLAKSVTVE
notes: made in house; host or cells: SF9 insect cells (sonicated, centrifuged cell extract)
Km [1]: 1490 µM | Km [2]: 1850 µM
